{GalNAc3} = trishexylamino-C6 triantennary GalNAc conjugate
How the values were obtained:
[1] = system: T1, OATP1B3; test: OATP1B3 inhibition study in MDCK cells; assay type: in vitro ADME; conditions: 100 μM ASO, 2 μM CCK-8
T1 construct: expressed in transfected cells; host or cells: MDCK-II
Experimental: A 96-well cell culture plate containing a monolayer of MDCK-II cells grown on a permeable support and a corresponding receiver tray was used. The basolateral compartment of the culture plate and wells were washed with warm HBSS three times, with wells of the culture plate serving as the apical compartment. The wash was aspirated by adding 150 μL of 37°C HBSS to both compartments. Plates were incubated at 37°C with orbital shaking at 60 rpm for 15 min for OAT1, OAT3, OCT1, OCT2, OATP1B1, and OATP1B3 (±5 min). The pre-incubation buffer from both compartments was aspirated and 150 μL of the following was added to the basal compartment. […] Samples containing probe substrate were added to 200 μL of scintillation fluid and counted on a 1450 Microbeta (PerkinElmer), whereas samples containing the test article were kept frozen. Test article concentrations, including control samples, were evaluated by an LC-MS method.
Signal to noise for probe substrates was calculated by dividing the uptake of the probe substrate in transporter-expressing cells by the uptake of probe substrate in control cells not expressing the transporter of interest. […]

[2] = system: T2, OAT3; test: OAT3 inhibition study in MDCK cells; assay type: in vitro ADME; conditions: 100 μM ASO, 10 μM p-aminohippurate
T2 construct: expressed in transfected cells; host or cells: MDCK-II
Experimental: A 96-well cell culture plate containing a monolayer of MDCK-II cells grown on a permeable support and a corresponding receiver tray was used. The basolateral compartment of the culture plate and wells were washed with warm HBSS three times, with wells of the culture plate serving as the apical compartment. The wash was aspirated by adding 150 μL of 37°C HBSS to both compartments. […] The pre-incubation buffer from both compartments was aspirated and 150 μL of the following was added to the basal compartment. […] OATP1B1, 2 μM [^3H]-estradiol-17 β-D-glucuronide; and OATP1B3, 2 μM [^3H]-cholecystokinin octapeptide (CCK-8). […] Plates were incubated at 37°C with orbital shaking at 60 rpm for 5 min. Both sides of the permeable support were washed four times with ice-cold PBS and 60 μL of cell extraction solution was added to each well. Plates were agitated for 15 min at 120 rpm, after which a 30-μL sample of the extract was collected. […] Test article concentrations, including control samples, were evaluated by an LC-MS method. Signal to noise for probe substrates was calculated by dividing the uptake of the probe substrate in transporter-expressing cells by the uptake of probe substrate in control cells not expressing the transporter of interest.

[3] = system: CYP2B6 mRNA; test: CYP2B6 mRNA induction in plated human hepatocytes; conditions: ASO 100 μM, human hepatocytes 72 hr, vs PBS 1% vehicle, mean ± SD of triplicate
Experimental: (§1) Upon receipt, sandwich-cultured cryopreserved human hepatocytes (with Matrigel) plated on collagen-coated 24-well plates were inspected under a microscope for general morphology and viability. Fresh culture medium (OptiCulture Hepatocyte Media) was added to each plate that passed the visual inspection. The plates were then placed in an incubator set to 37°C with 5% carbon dioxide (CO2) for overnight acclimation. […] During this time, cells in parallel wells were also treated with 50.0 μM omeprazole (inducer of CYP1A2), 1,000 μM phenobarbital (inducer of CYP2B6), or 10.0 μM rifampicin (inducer of CYP3A4) in triplicate, respectively.
(§2) After collection of the supernatant for catalytic analysis, the remaining cells were washed and lysed with QIAGEN Buffer RLT from the QIAGEN RNeasy Kit. […]
(§3) The activity of each CYP enzyme was measured by comparing the peak area ratio of the corresponding product to the peak area ratio of the internal standard. The fold induction was calculated by dividing the peak area ratio of each individual well from the treatment group by the mean of the peak area ratios obtained from the vehicle control wells. […] The ΔCƬ was calculated as follows: ΔCƬ = CƬ (CYP) − CƬ (GAPDH). […] The ΔΔCƬ was calculated as follows: ΔΔCƬ = Δ CƬ (Treatment) − Δ CƬ (Vehicle). The fold induction of the target CYP was calculated using the following equation: Fold=2^-ΔΔCT.

[4] = system: CYP3A4; conditions: ASO 100 μM, human hepatocytes 72 hr, vs PBS 1% vehicle, mean ± SD of triplicate
Experimental: as §1
(§4) The plates were then incubated at 37°C with 5% CO2 for 60 min. […] Aliquots of the supernatants were analyzed by LC-MS/MS for the formation of acetaminophen, hydroxyl-bupropion, or hydroxyl-midazolam as markers for enzyme activity of CYP1A2, CYP2B6, and CYP3A4, respectively.
(§5) The activity of each CYP enzyme was measured by comparing the peak area ratio of the corresponding product to the peak area ratio of the internal standard. The fold induction was calculated by dividing the peak area ratio of each individual well from the treatment group by the mean of the peak area ratios obtained from the vehicle control wells. […] The ΔCƬ was calculated as follows: ΔCƬ = CƬ (CYP) − CƬ (GAPDH). […] The ΔΔCƬ was calculated as follows: ΔΔCƬ = Δ CƬ (Treatment) − Δ CƬ (Vehicle). […]

[5] = system: CYP2B6; test: CYP2B6 enzyme activity induction in plated human hepatocytes; conditions: ASO 100 μM, human hepatocytes 72 hr, vs PBS 1% vehicle, mean ± SD of triplicate
Experimental: as §1, §4, §5

[6] = system: CYP1A2; test: CYP1A2 enzyme activity induction in plated human hepatocytes; conditions: ASO 100 μM, human hepatocytes 72 hr, vs PBS 1% vehicle, mean ± SD of triplicate
Experimental: as §1, §4, §5

[7] = system: CYP3A4 mRNA; test: CYP3A4 mRNA induction in plated human hepatocytes; conditions: ASO 100 μM, human hepatocytes 72 hr, vs PBS 1% vehicle, mean ± SD of triplicate
Experimental: as §1, §2, §3

Substance: ISIS 681257: 20-mer 2′-MOE gapmer PS/PO mixed backbone ASO conjugated to 5′-trishexylamino GalNAc3, targets Lp(a), sequence TGCTCCGTTGGTGCTTGTTC (5' {GalNAc3}, sugars by position and backbone not given here; 2'-MOE gapmer with mixed PS/PO backbone)
- Enhancement of probe substrate uptake, OATP1B3 [1]: 38.3%
- Enhancement of probe substrate uptake, OAT3 [2]: 18.2%
- Fold induction of CYP2B6 mRNA [3]: 1.36 ± 0.347 fold
- Fold induction of CYP3A4 enzyme activity [4]: 1.67 ± 0.310 fold
- Fold induction of CYP2B6 enzyme activity [5]: 1.20 ± 0.389 fold
- Fold induction of CYP1A2 enzyme activity [6]: 1.40 ± 0.116 fold
- Fold induction of CYP3A4 mRNA [7]: 0.213 ± 0.0471 fold

Reference: paper PMC5602538, “Assessment of the Drug Interaction Potential of Unconjugated and GalNAc3-Conjugated 2′-MOE-ASOs” (Molecular Therapy. Nucleic Acids, 2017)
